Experimental data taken from PMC9089897 (2022).

Columns and labels:
[1] = target: T1, biotinylated avi-tagged SARS-CoV-2 (Wuhan) receptor binding domain (RBD) (SARS-CoV-2 (Wuhan strain), UniProt P0DTC2 319-541); assay: BLI
[2] = target: T1, biotinylated avi-tagged SARS-CoV-2 …; assay: BLI; remark: listed apart in the source

Row | Binder | koff [1] | Kd [2]
1 | THSC20.HVTR04 (IgG) (antibody, V domains shown) VH: QVQLVESGGGVVQPGRSLRLSCAASGFTFSNYAIHWVRQAPGKGLEWVAVVSYDGSNKYYAESVKGRFTISRDNSKNTLSLQMISLRPEDTAVYYCASVADTAMVPEWYFDLWGQGTMVTVSS VL: QSVLTQPRSVSGSPGQSVTISCTGTSSDVGAYNYVSWYQQHPGKAPKLMIYDVSARPSGVPDRFSGSKSGNTASLTISGLQAEDEADYYCCSYAGSWVFGGGTKLTVL | 9.15e-05 s⁻¹ | –
2 | THSC20.HVTR26 (IgG) (antibody, V domains shown) VH: EVQLVESGGGLVQPGGSLRLSCAASGFTVSSNYMSWVRQAPGKGLEWVSAIYSGDSTYYADSVKGRFTISRHNPKNTLYLQMNSLRAEDTAVYYCARLVGALTNIVVSGDGGAFDIWGQGTMVTVSS VL: SYELTQPASVSGSPGQSITISCTGTSSDVGSYNLVSWYQQHPGKAPKLMIYEVSKRPSGVSNRFSGSKSGNTASLTISGLQAEDEVDYYCCSYAGSSTWVFGGGTKLTVL | 0.000131 s⁻¹ | 255 pM
